The text below walks through data of patent publication US7629440.

In the assay the target is murine GM-CSF receptor (murine) (UniProt Q00941). Description: cell-based or functional assay.
Chain of UniProt Q00941 (Q00941 30-388, chain 1 of 2): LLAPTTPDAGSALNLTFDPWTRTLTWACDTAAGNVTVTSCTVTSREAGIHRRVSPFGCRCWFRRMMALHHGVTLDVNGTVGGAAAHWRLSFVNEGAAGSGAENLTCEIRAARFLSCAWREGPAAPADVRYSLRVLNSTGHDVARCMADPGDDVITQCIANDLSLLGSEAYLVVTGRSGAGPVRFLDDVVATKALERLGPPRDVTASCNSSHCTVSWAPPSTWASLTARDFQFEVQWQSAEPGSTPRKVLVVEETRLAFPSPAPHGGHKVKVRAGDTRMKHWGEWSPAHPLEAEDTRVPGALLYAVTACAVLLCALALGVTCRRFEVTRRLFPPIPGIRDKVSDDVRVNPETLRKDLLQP
Chain of UniProt Q00941 (P26955 23-896, chain 2 of 2, further chain): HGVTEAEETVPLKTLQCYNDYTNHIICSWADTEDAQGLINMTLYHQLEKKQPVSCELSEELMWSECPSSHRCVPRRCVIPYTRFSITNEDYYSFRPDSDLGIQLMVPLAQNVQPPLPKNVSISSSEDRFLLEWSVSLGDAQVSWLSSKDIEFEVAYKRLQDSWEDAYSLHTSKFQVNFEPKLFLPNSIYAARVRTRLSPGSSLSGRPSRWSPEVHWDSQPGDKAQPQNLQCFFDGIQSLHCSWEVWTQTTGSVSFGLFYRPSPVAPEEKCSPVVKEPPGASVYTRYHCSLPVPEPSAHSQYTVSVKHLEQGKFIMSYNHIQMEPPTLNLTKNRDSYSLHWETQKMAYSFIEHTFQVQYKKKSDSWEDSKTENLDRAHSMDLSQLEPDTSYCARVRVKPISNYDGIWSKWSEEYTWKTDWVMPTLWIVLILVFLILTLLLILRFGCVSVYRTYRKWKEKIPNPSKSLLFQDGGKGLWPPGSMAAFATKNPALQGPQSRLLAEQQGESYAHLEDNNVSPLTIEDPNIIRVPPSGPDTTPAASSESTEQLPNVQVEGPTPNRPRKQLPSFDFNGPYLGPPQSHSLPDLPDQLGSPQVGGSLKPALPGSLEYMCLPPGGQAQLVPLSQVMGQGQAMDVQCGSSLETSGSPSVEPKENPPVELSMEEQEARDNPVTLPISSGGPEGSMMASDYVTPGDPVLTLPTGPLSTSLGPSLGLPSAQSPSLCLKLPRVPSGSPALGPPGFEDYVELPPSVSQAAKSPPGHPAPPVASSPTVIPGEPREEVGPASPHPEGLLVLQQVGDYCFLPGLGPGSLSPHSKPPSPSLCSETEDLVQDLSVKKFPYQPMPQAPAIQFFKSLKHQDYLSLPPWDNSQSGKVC

The substance “murine GM-CSF fused to the S. cerevisiae Gas1 GPI modification signal sequence (GPI-GM-CSF) (from UniProt P01587 18-141; P22146 470-528) (other; the values are: proliferation increase vs soluble GM-CSF)” yielded a proliferation of the GM-CSF dependent FDC-P1 cell line (Biotrak BrdU cell proliferation ELISA), 10 ng per well of 25%.
